# Data taken from PMC4820838, “Quantifying the dynamics of the oligomeric transcription factor STAT3 by pair correlation of molecular brightness” (Nature Communications, 2016).
# Biological target: the molecule itself
# Test: pair correlation of molecular brightness (pCOMB); pair correlation of brightness fluctuations along a 64-pixel confocal line scan from cytoplasm to nucleus of live HeLa cells; amplitude calibrated against free GFP, YFP or mCherry; cells stimulated with 10 nM oncostatin M for 15 min
protein,measurement,value
"STAT3-DB-GFP (natural protein, UniProt P40763 1-770, looked up, cloned by Ivan Ng in the laboratory of Marie Bogoyevitch and David Jans; source: HeLa cells, transiently transfected, in live cells) MAQWNQLQQLDTRYLEQLHQLYSDSFPMELRQFLAPWIESQDWAYAASKESHATLVFHNLLGEIDQQYSRFLQESNVLYQHNLRRIKQFLQSRYLEKPMEIARIVARCLWEESRLLQTAATAAQQGGQANHPTAAVVTEKQQMLEQHLQDVRKRVQDLEQKMKVVENLQDDFDFNYKTLKSQGDMQDLNGNNQSVTRQKMQQLEQMLTALDQMRRSIVSELAGLLSAMEYVQKTLTDEELADWKRRQQIACIGGPPNICLDRLENWITSLAESQLQTRQQIKKLEELQQKVSYKGDPIVQHRPMLEERIVELFRNLMKSAFVVERQPCMPMHPDRPLVIKTGVQFTTKVRLLVKFPELNYQLKIKVCIDKDSGDVAALRGSRKFNILGTNTKVMNMEESNNGSLSAEFKHLTLREQRCGNGGRANCDASLIVTAALHLITFETEVYHQGLKIDLETHSLPVVVISNICQMPNAWASILWYNMLTNNPKNVNFFTKPPIGTWDQVAEVLSWQFSSTTKRGLSIEQLTTLAEKLLGPGVNYSGCQITWAKFCKENMAGKGFSFWVWLDNIIDLVKKYILALWNEGYIMGFISKERERAILSTKPPGTFLLRFSESSKEGGVTFTWVEKDISGKTQIQSVEPYTKQQLNNMSFAEIIMGYKIMDATNILVSPLVYLYPDIPKEEAFGKYCRPESQEHPEADPGSAAPYLKTKFICVTPTTCSNTIDLPMSPRTLDSLMQFGNNGEGAEPSAGGQFESLTFDMELTSECATSPM",stoichiometry N,2
